Source: the DeepSol protein solubility set

Assay: soluble on expression in E. coli; label from the status in PepcDB or PDB records

| Sequence | soluble on expression in E. coli |
| --- | --- |
| TEELHKIEDIIRIFNDCFSQEYNTRLAKGGDYPIYLPAYRAENNTPSDRPYHVILFAHGYYSSALHEIAHWLVAGTARRQLEDFGYWYEPDGRSAEQQREFETVEVKPQAIEWILATAADFRYFASADNLSGNAGDNSAFKQAVYQQVKIYANRGYLPKRAEKLRQALAKFYGTTDQINLANFEIT | not soluble |
| MGSDKIHHHHHHMSKHQNDNPRVPHEAAPLRVLHVGPGQGQRGGIASVLAELSAQRARFRDAGVVVAIFETHGFQSMRSLLCFPLVDIPRFLFAVLKGVDLIHFHVSVRGSFYRKFLLYLLARLFGKRTIFHLHAGNFQDFWASNGPTTRKAVSRFIRGADAVVAVSSAIASELQGHQGVTRNLYVIGNTAYSAELAAGAALRDSSGGKRVDMTPYVAFAGRFTEGKGLDELLRAVAALNRRGLKVQLRLAGAGDMDRWTRAAIEYGVSDQVRFVGWLQGDAKLEFYRDAAVFCMPSHFEAFGISTLEAMFIGRPVIGTRVGGFLDLVEEGVTGYLVRCGDSHGLAERIRHLVERPELAHEMGRQAVSRALSRYSVDAIVSQYARCYRQVNGSRGA | not soluble |
| VSELRLMAVHAHPDDESSKGAATLARYADEGHRVLVVTLTGGERGEILNPAMDLPDVHGRIAEIRRDEMTKAAEILGVEHTWLGFVDSGLPKGDLPPPLPDDCFARVPLEVSTEALVRVVREFRPHVMTTYDENGGYPHPDHIRCHQVSVAAYEAAGDFCRFPDAGEPWTVSKLYYVHGFLRERMQMLQDEFARHGQRGPFEQWLAYWDPDHDFLTSRVTTRVECSKYFSQRDDALRAHATQIDPNAEFFAAPLAWQERLWPTEEFELARSRIPARPPETELFAGIEP | soluble |
| MSLADPADISAASRSVVRVVIIESDGDRANLITHGTGFAVTPNLIVTNAHVVEELRRDDTLIAGVVPAEGRNGFPAKLVAYSPGNDLALLRIEGGGSITPITLFPGAPGDGSEVYAVGYPGNVDLAQGLSMADLVTPQAAVKTRGYLSGGRSSRSFDTLLHTAPLGSGNSGGPLLDSCGRVIGVNSFGTVSDNSTDSAFYFAISMRELSAFLRRANVDAHTSGLPCRSIADLDRAEAERAAGEQARLAAQTAAQADAKQRAMDKARRDAELAILSERDNGEGHHHHHH | soluble |
| DAQTRRRERRAEKQAQWKAANPLLVGVSAKPVNRP | soluble |
| MAHHHHHHMNSSTVSEDIALAGIKKEVLRSLPFWKSFVELREAYHRRPRVFSCDVSIKSRKACSHFVGFDVLWVQSEVVLVSWRRPSKRNRANDFPPEFVEVHLTFGSMHFVHQNVHLVGDHCSYSLQSVVLLQRPEQLQCVAGNMVHFAFLVYGMLHISQRDGFLTDPRAILPPPNSAVMLLGMGGNSMERGIRYILGEDAHIYIAEIEPAVVSTCRFAGLLKENANTHVCLDSAERTIQKCPEKCTFIFMDLFEPLSGNMVNTMPLIRQAFDILAPNGILLINEHSIPTVEHLLPLLHLFGDHNVQFVNVRGWNESIIAATKPGGNADGLGRKCSKRLATDVLNDFDHTFPGWMPDKNYILRSQILYAKPLTLKLRARQWTS | not soluble |
| VDRLHIIGDIFDRGPRADIIMDKLEEYHAVDIQWGNHDILWMGAASGSSVCMANVIRISARYANLSTIEDGYGINLLPLATFAMDFYGNDKCKNFEPKIESDKSYTVKEIELIGKMHKAIAIIQFKLEGEAIKRHPEFKMEHRMLLNKINFEDSTIELDGKKYKLNDTSFPTIDKNDPYKLIDEEREVVEKLRSSFVNSEKLNRHVRFLFSHGNLYLKFNSNLLYHGCIPLNEDGTFKEVLIGSHKYKGKALLDKLDVLARKSFFYEENSKNSKYENDMIWYLWSGPFSPLFGKEKMTTFERYFIDDKKTHYEKKDPYYHYRDDEDICINILREFGLDSEQAHIINGHVPVESKNGENPIKANGKLIVIDGGFSKAYQSKTGIAGYTLIYNS | not soluble |
| MSTLLKSAKSIVPLMDRVLVQRIKAQAKTASGLYLPEKNVEKLNQAEVVAVGPGFTDANGNKVVPQVKVGDQVLIPQFGGSTIKLGNDDEVILFRDAEILAKIAKD | not soluble |
| MSLSPLSKLDKIAVSGNKQLTENEVRKESGLEIGEFVIGISNGKTEDTLKKNTLIKDATVSKEGINDVQINITEFKTIGYQQQDGKYYDVLESGIMLTDQPRQFPIGNDLLFQNFKNGKTLEKMVAQINKLPKDVVSSISEVIYSPTKTDKNHIKLYMNDGNQVSADISTFAEKMQHYPAIVAQLAKGQKGVIDIEVGSYFQSYYQQNAEKKAAEEAAKEKKETNEGHHHHHH | soluble |
| MGHHHHHHSHMLKKMGEAVARVARKVNETVESGSDTLDLAECKLVSFPIGIYKVLRNVSGQIHLITLANNELKSLTSKFMTTFSQLRDVPVEKLAAMPALRSINLRFNPLNAEVRVIAPPLIKFDMLMSPEGARAPLP | not soluble |
| MGSDKIHHHHHHKTSSTQLPTIDAISSVADLTNAVNGVYEQQATEVGSYGAEFTLLADLRSGDFQSISTVNHAGPMYRYQTGKNDEMVYSFYKLFYNSLARLNNVLAAAENLEGADVDILKGELYAMRALYHFDLARVFAKLPSTTDMNDLGIVLSTEVYPTDYIGTRATLQQTYDQILKDIETALPLLSKDKQTGHINYWGALAIRARAYLYLEKNKEALADCKEIIASSPYKLYTRDEYIGAWDKEGTNEAIFEILVTPNYNAQRNSIGYFTHASGYGECAATESFLEELAKHPGDIRTELFAKETDNGYDGTYPQKYKGRDGQIYVNNPKVVRLSEVYLIAAEAALKAGDTSAAAGYMNTLRKNRIENYTDVASITLDDILLERRLELFTEGHTAWDAWRNGKSVNNKFVGEVKPGDYRTIMAIPIGEITVSRGQLIQNPGY | not soluble |
| MKSAWMEKTYTIDGCAFHTQHRKGSSGVTIVFEAGYGTSSETWKPLMADIDDEFGIFTYDRAGIGKSGQSRAKRTADQQVKELESLLKAADVKPPYLAVSHSYGAVITGLWACKNKHDIIGMVLLDPALGDCASFTFIPEEMHKSHTRKMMLEGTHAEFSKSLQELKKRQVHLGNMPLLVLSSGERTEKFAAEQEWQNLHSSILSLSNQSGWIQAKNSSHNIHHDEPHIVHLAIYDVWCAACQQAAPLYQAVN | not soluble |
| MIQHTMLKLYWANFTTAQLHHLTSTYPDFLSENVFHQHDMIKRWLTERNSERLWNKYERFKELKLMDIIKEMKKANVSFTTYFDDNYPSLCKEMYDYPYVIFYKGNPQFFNHSHSLAVIGSRNATQYTSQSLNYLFPSFRQLNMAIVSGLARGADSVAHQTALKYLLPTIGVLGFGHCYHYPKATLNLRTKVERNGLVISEYPPFSPISKHKFPERNRLISGLSRGVLITEAEERSGSQITIDCALEQNRNVYVLPGSMFNKMTKGNLRRINEGAQVVIDESSILYDYLF | not soluble |
| MVVSDLKLRDMNEADRHAVGFVGFAAWRAGDAFDASYLDSYVVERVRGEFESFAKSPTGDVVVAEIDGVVVGWGACDAKPHHISDLWVDPNWQGKGIGKALIVHFLDRMRAEGLPLATIDTHARNRAAIGLYERCGFEIVWRGMEWSDIMKVELEKVKLEQKLSP | soluble |
| GAMGNNLVETTCKNTPNYQLCLKTLLSDKRSATGDITTLALIMVDAIKAKANQAAVTISKLRHSNPPAAWKGPLKNCAFSYKVILTASLPEAIEALTKGDPKFAEDGMVGSSGDAQECEEYFKGSKSPFSALNIAVHELSDVGRAIVRNLL | soluble |
| VVIFFGVILGILIVEYGQKRSFSSWLVEKMFAYRKYKLSKKVDNYKGVETQRNRNIPYHLDNPEEIVGFSTQEYDVNGMQVFIINDQKQSHQPVIYYLYGSVYLRRPEKLHFKTVKHLIQLTNAKVVFPNFPKVPYATYQDVYPKLVEAYQQFCLSNGPSQVSVIGDSSGGGMALAFAKYIRDTKTAPQPKQLILISPWLDVSFKNQAYKDFEAEEAYLDARRLRDIGELWAGGQGNMQLPYVSPLYGDYEDLPEITTFVGTKEIFYPDIMSLHDQLTRQRIANQLIIAEKMIHAYVIFPIREAKQARKQIAELVLKTVEHT | not soluble |
| MMKVLAFDTSSKALSVAVLNNMECLATVTINIKKNHSINLMPAIDFLMQSIDLEPQDLDRIVVAEGPGSYTGLRVAVATAKMLAYTLKIDLVGVSSLYALTNGFSENDLLVPLIDARRNNVYVGFYQNGDTVKPDCHTSLEEVLQEVGNKANVHFVGEVAAFFDQIKKALPHAKITETLPCAVAIGRKGQKMKSVNVDAFVPRYLKRVEAEENWLKNHCETNTEEYIKRVLEHHHHHH | not soluble |
| MGSDKIHHHHHHMKILYISNFNLPDFQNDMIFHGLRSVFGNDCIDSNEAWYMYEDFRNYWNVRVPENGMSYGRGFTLYGKLPKIDIDRKNIYEKIKDKYFDKIVYGSITRNNMFLDEVISIYEKNNIIMIDGEDNTEINQNFFGKGIYFKRELIYEPTSYLKPIGFCIPNETIVNNISIKEKDYGHVIPGDPETYIYTDEVSYFEDYRKSYFGVTMKKGGWDCLRHYEILMNGCIPYFLNLEQCPKYTMTHFPKNIILDVINKINTESNILNFYNEYVDILLEYTRNKLTTRKVIESIL | not soluble |
| MGSDKIHHHHHHMYPAKHYQTNEENITHYHEIIESNPLATLLFSHESEIDVSHIPCHFSLKTSNTNTQQLERSTLTAHVSNHHPLAKVLQRSSTVALQLVFHGEDAYISPRDVSKQHSHAQSVPTWNYAKVHVSGIAHEVKDSDDKYQYMAASTAYFEQRRSTNNIDKPWSIEEAPAIAIKKMLNAITIFSINITHLEGRFKLSQNKSKAVQKEIAEQLTTRGVEELGQLMLAL | not soluble |
| INDPAKSAAPYHDEFPLFRSANMASPDKLSTGIGFHSFRIPAVVRTTTGRILAFAEGRRHTNQDFGDINLVYKRTKTTANNGASPSDWEPLREVVGSGAGTWGNPTPVVDDDNTIYLFLSWNGATYSQNGKDVLPDGTVTKKIDSTWEGRRHLYLTESRDDGNTWSKPVDLTKELTPDGWAWDAVGPGNGIRLTTGELVIPAMGRNIIGRGAPGNRTWSVQRLSGAGAEGTIVQTPDGKLYRNDRPSQKGYRMVARGTLEGFGAFAPDAGLPDPACQGSVLRYNSDAPARTIFLNSASGTSRRAMRVRISYDADAKKFNYGRKLEDAKVSGAGHEGGYSSMTKTGDYKIGALVESDFFNDGTGKNSYRAIIWRRFNLSWILNGPNN | soluble |
| MAHHHHHHMEDNDWTGHHSGDGDQNEGMMLNRMEAVMDEVEKLRNLNGALTLELQLAEKKLVIRHERIETLKHGLRQECAAKQELQRTLEAERVCHQAQLQDARNDALHWRQLYDDLLNNSHTRSRKHNGRHRNEHRSSTPTLEAALTSREPSSLADSPVAMGHGIIVKPIRGGGQKELN | soluble |
| MQRYNSTYVVKRDGRKEDVHFDKITSRIQKLSYGLNMDFVDPVAVAIKVISGLYKGVTTVELDNLAAETAASMTTQHPEYALLAARIAVSNLHKKTNKVFSEVMKTLHEFHHPHTGKHAPMISDETWAIIEKNADKLNSAIVYDRDYSYTYFGFKTLERSYLLKINKEIVERPQQMLMRVSIGIHGDDITSAIETYNLMSERYMTHASPTLFNSGTCRPQMSSCFLLTMSEDSILGIYDTLKQCALISKSAGGIGLNVHKIRATGSVIAGTNGTSNGLIPMLRVYNNTARYVDQGGNKRPGAFAIYLEPWHADIFEFVSLRKNTGPEEERARDLFLALWIPDLFMKRVEKDQEWSLMCPCECPGLDDCWGEEFEALYAKYEAEGRVRKTVKARKLWEHIVSNQIETGLPYITYKDAANRKSNQQNLGTIKCSNLCTEIIEYSAPDEIAVCNLASIALNRYVTPEKKFDFVKLAEVTKVITRNLNKIIDVNYYPVEEARNSNMRHRPIGLGVQGLADCFMLMRYPFTSAEARDLNKRIFETIYYAALEASCELAELNGPYSTYEGSPVSKGQLQFDMWGVTPTDQCDWATLRKKIAKHGIRNSLLMAPMPTASTAQILGNNESIEPYTSNIYSRRVLSGDFQIVNPHMLKDLVERGLWTDEMKNRLIANNGSIQNIDGIPSDIKELYRTVWEISQKDIIEMAADRGAYIDQSQSLNIHMAKPSYAGITSMHFYGWKKGLKTGMYYLRTKPAVNAVQFTVDKNALKTNQQAETPATVAESQDEGCLMCSG | not soluble |
